Measurements reported in patent US20100098706A1 (LFB BIOTECHNOLOGIES, published 2010).

Key:
[1] = molecular target: T1, human CD16 receptor (FcgammaRIIIa) (human, UniProt P08637 17-254); test: cell-based or functional assay
[2] = molecular target: T1, human CD16 receptor (FcgammaRIIIa); test: cell-based or functional assay; remark: listed apart in the source
[3] = molecular target: T2, human LDL (Low Density Lipoprotein) receptor (human, UniProt P01130 22-860); test: binding to melanoma cell lines; method not described
T2 construct: whole, on cells; no recombinant LDL-R was tested; also called LDL-R; human LDL-R
T2 sequence (P01130 22-860): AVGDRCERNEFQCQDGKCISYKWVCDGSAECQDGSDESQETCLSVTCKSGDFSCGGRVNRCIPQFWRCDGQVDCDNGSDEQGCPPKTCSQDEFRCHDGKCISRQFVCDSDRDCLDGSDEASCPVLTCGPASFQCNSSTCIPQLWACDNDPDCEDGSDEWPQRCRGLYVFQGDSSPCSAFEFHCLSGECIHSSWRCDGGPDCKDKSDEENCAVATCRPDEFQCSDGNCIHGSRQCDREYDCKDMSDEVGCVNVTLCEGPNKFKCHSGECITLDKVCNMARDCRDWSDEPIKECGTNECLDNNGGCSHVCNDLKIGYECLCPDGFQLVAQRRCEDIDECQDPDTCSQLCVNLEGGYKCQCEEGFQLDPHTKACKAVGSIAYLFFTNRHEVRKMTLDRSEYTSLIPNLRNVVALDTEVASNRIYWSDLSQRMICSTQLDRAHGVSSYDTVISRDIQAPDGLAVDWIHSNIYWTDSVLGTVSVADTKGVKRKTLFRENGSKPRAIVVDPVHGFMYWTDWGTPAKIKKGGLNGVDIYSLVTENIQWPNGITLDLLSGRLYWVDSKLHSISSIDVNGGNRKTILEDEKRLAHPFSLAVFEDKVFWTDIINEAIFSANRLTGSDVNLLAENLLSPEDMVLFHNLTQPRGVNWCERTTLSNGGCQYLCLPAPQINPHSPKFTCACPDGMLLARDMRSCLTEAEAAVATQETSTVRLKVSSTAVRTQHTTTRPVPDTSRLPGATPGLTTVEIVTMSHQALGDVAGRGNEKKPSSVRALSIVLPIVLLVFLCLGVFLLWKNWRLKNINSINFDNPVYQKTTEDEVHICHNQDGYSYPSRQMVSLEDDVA

[4] = molecular target: T1, human CD16 receptor (FcgammaRIIIa); test: flow cytometry on NK cells; competition with 3G8-PE; antibody at 50 µg/ml; reference Rituxan®
Method: The binding to the CD16 receptor is evaluated by a murine anti-CD16 antibody (3G8) competition test.
The effector cells (NK cells) are purified by the negative depletion kit (NK Cell Isolation Kit, Myltenyi, Paris, France), starting with peripheral blood from healthy donors. Then, the NK cells are incubated with variable concentrations (0, 10 and 50 μg/ml) of antibodies to be evaluated and the anti-CD16 antibody (3G8) coupled to a fluorochrome (3G8-PE) at a fixed concentration.
After washing, the binding of the 3G8-PE to the CD16 receptor of the NK cells is evaluated by flow cytometry.

T1 sequence (P08637 17-254): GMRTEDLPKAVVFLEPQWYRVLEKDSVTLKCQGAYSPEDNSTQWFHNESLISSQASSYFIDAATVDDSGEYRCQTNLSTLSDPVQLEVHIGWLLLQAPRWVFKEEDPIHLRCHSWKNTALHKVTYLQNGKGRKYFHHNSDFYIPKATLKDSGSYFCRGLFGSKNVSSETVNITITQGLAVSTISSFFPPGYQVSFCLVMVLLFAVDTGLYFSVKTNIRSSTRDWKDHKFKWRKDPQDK

ADCC EC50, GUY 17.2 target cells, NK effector cells [1]: 0.45 µg/mL
ADCC EC50, HT-144 target cells, NK effector cells [2]: 0.45 µg/mL
binding result [3]: binds
fold binding against Rituxan® [4]: ~3 fold
B1: anti-LDL-R chimeric antibody EMAB604 (antibody, human IgG1, kappa)
heavy: not shown
light: DVLMTQTPLSLPVSLGDQASISCRSSQSILHSSGIAYLEWYLQKPGQSPKLLIYKVSNRFSGVPDRFSGSGSGTDFTLKISRVEAEDLGVYYCFQGSHVPWTFGGGTKLEIKRTVAAPSVFIFPPSDEQLKSGTASVVCLLNNFYPREAKVQWKVDNALQSGNSQESVTEQDSKDSTYSLSSTLTLSKADYEKHKVYACEVTHQGLSSPVTKSFNRGEC
notes: The cloned V fragments contain the natural signal peptide of C7; also called anti-LDL-R (EMAB604); chimeric antibody C7
